Results as given in the Human Domainome abundance scans (Beltran et al. 2025).
± gives the uncertainty stated by the source.

B1: SH3 and PX domain-containing protein 2B, residues 155 to 209; numbered along this chain, A1X283 (parent)
chain: EQYVVVANYQKQESSEISLSVGQVVDIIEKNESGWWFVSTAEEQGWVPATCLEGQ

Variants of: B1
Assay: abundance fitness (aPCA) (normalised: wild type 0, dead -1); higher = more abundant; growth selection in yeast, the domain comes from the species named
Conditions: Homo sapiens

Variant | abundance fitness
S20K | -0.075 ± 0.11
S20Y | -0.143 ± 0.11
S20C | -0.209 ± 0.11
S20P | -0.536 ± 0.13
S20D | -0.317 ± 0.16
L52K | -0.647 ± 0.19
L52W | -0.775 ± 0.16
L52C | -0.227 ± 0.18
L52T | -1.22 ± 0.29
L52Q | -1.05 ± 0.26
L52Y | -1.07 ± 0.25
T50A | -0.052 ± 0.086
T50E | -0.096 ± 0.14
T50C | -0.144 ± 0.16
T50S | -0.046 ± 0.086
T50H | -0.299 ± 0.18
T50W | 0.049 ± 0.12
T50R | -0.023 ± 0.082
T50P | -0.134 ± 0.16
A7C | -0.25 ± 0.093
A7W | -0.286 ± 0.11
A7Q | -0.106 ± 0.11
A7S | -0.052 ± 0.083
A7M | -0.15 ± 0.12

Variant | abundance fitness
A7L | -0.101 ± 0.081
A7R | -0.066 ± 0.075
A7K | -0.024 ± 0.12
G22Q | -0.512 ± 0.16
G22F | -0.91 ± 0.26
G22H | -0.581 ± 0.19
G22V | -0.945 ± 0.097
G22Y | -0.498 ± 0.19
Y9D | -0.491 ± 0.1
Y9N | -0.616 ± 0.22
Y9G | -0.81 ± 0.083
Y9K | -0.619 ± 0.12
Y9W | 0.094 ± 0.12
Y9F | 0.011 ± 0.12
Y9R | -0.21 ± 0.071
S15H | 0.055 ± 0.23
S15R | 0.04 ± 0.073
S15A | -0.01 ± 0.085
S15Q | 0.103 ± 0.12
S15G | -0.073 ± 0.073
S15T | -0.103 ± 0.12
S15F | -0.244 ± 0.093
S15N | -0.061 ± 0.23
D26V | -0.179 ± 0.074

Variant | abundance fitness
D26P | -0.928 ± 0.27
D26T | -0.109 ± 0.12
D26M | -0.134 ± 0.24
D26L | -0.078 ± 0.093
D26N | 0.146 ± 0.14
N8Y | -0.448 ± 0.18
N8V | -0.296 ± 0.075
N8H | -0.102 ± 0.13
N8I | -0.501 ± 0.18
T40V | -0.042 ± 0.061
T40G | -0.19 ± 0.059
T40W | -0.354 ± 0.098
T40C | -0.201 ± 0.12
T40E | -0.337 ± 0.095
T40S | 0.015 ± 0.075
T40D | -0.234 ± 0.099
T40Q | 0.063 ± 0.11
T40Y | -0.151 ± 0.18
T40K | -0.035 ± 0.11
W46D | -0.652 ± 0.2
W46M | -0.039 ± 0.095
W46Y | -0.051 ± 0.22
W46G | -1.08 ± 0.1
F37Q | 0.036 ± 0.13

Variant | abundance fitness
F37I | -0.181 ± 0.15
F37H | -0.068 ± 0.12
F37R | 0.06 ± 0.07
F37Y | 0.061 ± 0.17
F37C | -0.127 ± 0.15
A49E | -0.273 ± 0.15
A49T | -0.191 ± 0.15
A49P | -0.105 ± 0.1
A49D | -0.214 ± 0.12
A49H | 0.118 ± 0.14
G34H | -0.327 ± 0.14
G34W | -0.708 ± 0.13
G34L | -0.423 ± 0.078
G34P | -0.249 ± 0.1
G34N | -0.538 ± 0.22
G34T | -0.393 ± 0.092
G34R | -0.306 ± 0.07
E16K | -0.16 ± 0.16
E16P | -0.667 ± 0.17
E16L | -0.805 ± 0.12
E16C | -0.505 ± 0.16
E16Y | -0.853 ± 0.3
V6Y | -0.262 ± 0.17
V6I | 0.054 ± 0.14

Variant | abundance fitness
V6C | -0.151 ± 0.15
V6Q | -0.199 ± 0.14
V6N | -0.214 ± 0.25
V6W | -0.326 ± 0.1
V6K | 0.056 ± 0.15
E42Y | -0.163 ± 0.14
E42Q | 0.019 ± 0.12
E42G | -0.037 ± 0.061
E42I | -0.387 ± 0.14
L19G | -0.838 ± 0.093
L19T | -0.604 ± 0.089
L19I | -0.149 ± 0.17
L19E | -0.768 ± 0.15
L19N | -0.966 ± 0.16
L19F | -0.441 ± 0.18
W36A | -0.104 ± 0.084
W36C | -0.11 ± 0.13
W36D | -0.403 ± 0.096
W36V | 0.009 ± 0.072
W36K | -0.889 ± 0.27
G54F | -0.143 ± 0.12
G54A | 0 ± 0.1
G54Y | -0.042 ± 0.26
G54V | 0.008 ± 0.1

Variant | abundance fitness
G54R | -0.019 ± 0.1
E29V | -0.258 ± 0.073
E29Y | -0.502 ± 0.18
E29R | 0.084 ± 0.079
E29M | -0.417 ± 0.12
E29A | -0.056 ± 0.08
E29P | -0.974 ± 0.26
E29T | -0.037 ± 0.093
K11F | -0.689 ± 0.19
K11S | -0.072 ± 0.087
K11N | -0.33 ± 0.16
K11E | -0.183 ± 0.11
K11G | -0.015 ± 0.054
Q55N | -0.551 ± 0.29
Q55G | -0.229 ± 0.16
Q55W | -0.329 ± 0.3
Q55S | -0.133 ± 0.12
Q55Y | -0.267 ± 0.19
Q55V | -0.44 ± 0.17
K30F | -0.357 ± 0.11
K30L | -0.548 ± 0.16
K30W | -0.58 ± 0.16
K30D | -0.767 ± 0.18
K30Y | 0.029 ± 0.28

Variant | abundance fitness
K30E | -0.17 ± 0.14
K30R | -0.049 ± 0.077
S33M | -0.272 ± 0.14
S33W | -0.387 ± 0.12
S33G | -0.088 ± 0.072
S33L | -0.242 ± 0.094
S33F | -0.229 ± 0.13
S33P | -0.5 ± 0.13
Q10L | -0.044 ± 0.088
Q10H | -0.145 ± 0.21
Q10W | -0.334 ± 0.14
Q10G | -0.322 ± 0.077
Q10T | -0.058 ± 0.13
I27H | -0.908 ± 0.23
I27A | 0.037 ± 0.13
I27D | -1.05 ± 0.22
I27S | -0.404 ± 0.085
I27P | -0.008 ± 0.13
I27Q | -0.609 ± 0.19
I27L | -0.099 ± 0.067
I27C | -0.001 ± 0.093
I27M | -0.185 ± 0.11
I27G | -0.351 ± 0.073
